Test results as given in PMC3845908 (Journal of the American Chemical Society, 2012).
Residue numbers refer to the chain shown, from its start. Names may count otherwise. Like-named read-outs stand apart in the source and are kept apart here.

Assays:
[1] = target: the molecule itself; assay: pulsed double electron-electron resonance
[2] = target: the molecule itself; assay: pulsed double electron-electron resonance; remark: listed apart in the source

B1: Streptomyces lividans KcsA R64C, MTSL spin-labelled (natural protein, UniProt P0A334 1-160, looked up)
chain: MPPMLSGLLARLVKLLLGRHGSALHWRAAGAATVLLVIVLLAGSYLAVLAERGAPGAQLITYPCALWWSVETATTVGYGDLYPVTLWGRLVAVVVMVAGITSFGLVTAALATWFVGREQERRGHFVRHSEKAAEEAYTRTTRALHERFDRLERMLDDNRR
modifications: MTSL spin label on the cysteine at 64
binding result [1]: binds

B2: Streptomyces lividans KcsA F114C full length, MTSL spin-labelled (natural protein, UniProt P0A334 1-160, looked up)
chain: B1 chain with C64R, F114C
modifications: MTSL spin label on the cysteine at 114
binding result [2]: binds
